Laboratory results: PMC5780253 (Biochimica et biophysica acta, 2017)

Target: the molecule itself
Experiment: SDS-PAGE and Western blot of cell lysate without cross-linker

B1: human apical sodium-dependent bile acid transporter, wild type (wt-hASBT) (natural protein, UniProt Q12908 1-348, looked up)
chain: MNDPNSCVDNATVCSGASCVVPESNFNNILSVVLSTVLTILLALVMFSMGCNVEIKKFLGHIKRPWGICVGFLCQFGIMPLTGFILSVAFDILPLQAVVVLIIGCCPGGTASNILAYWVDGDMDLSVSMTTCSTLLALGMMPLCLLIYTKMWVDSGSIVIPYDNIGTSLVSLVVPVSIGMFVNHKWPQKAKIILKIGSIAGAILIVLIAVVGGILYQSAWIIAPKLWIIGTIFPVAGYSLGFLLARIAGLPWYRCRTVAFETGMQNTQLCSTIVQLSFTPEELNVVFTFPLIYSIFQLAFAAIFLGFYVAYKKCHGKNKAEIPESKENGTEPESSFYKANGGFQPDEK
modifications: N-glycosylated at Asn10 (glycosylated ~41 kDa and non-glycosylated ~37 kDa forms both seen)
stoichiometry N: 2
